B1: S2 (dsDNA)
DNA 1: GGGCACAGACATTTTAATCA
DNA 2: TGATTAAAATGTCTGTGCCC
B2: CDC6 probe (dsDNA)
DNA 1: CGCTCCCCGGCCATCTTGGCGGCTGGT
DNA 2: ACCAGCCGCCAAGATGGCCGGGGAGCG
B3: S4M (dsDNA)
DNA 1: TGGTGCCGAGGGTTTTTTTC
DNA 2: GAAAAAAACCCTCGGCACCA
B4: S1 (dsDNA)
DNA 1: ATGATAAGCCATGATCACAC
DNA 2: GTGTGATCATGGCTTATCAT
B5: S5 (dsDNA)
DNA 1: GCTTTCTTCCATCTTGAAAA
DNA 2: TTTTCAAGATGGAAGAAAGC
B6: S5M (dsDNA)
DNA 1: GCTTTCTTCGGGCTTGAAAA
DNA 2: TTTTCAAGCCCGAAGAAAGC
B7: S4 (dsDNA)
DNA 1: TGGTGCCGACATTTTTTTTC
DNA 2: GAAAAAAAATGTCGGCACCA
B8: S3 (dsDNA)
DNA 1: CTTGTCTGCCATTGTATCTT
DNA 2: AAGATACAATGGCAGACAAG
B9: S2M (dsDNA)
DNA 1: GGGCACAGAGGGTTTAATCA
DNA 2: TGATTAAACCCTCTGTGCCC

These binders were tested against T1, His6-YY1 (UniProt P25490 1-414) (assay: EMSA).
T1 sequence (P25490 whole entry): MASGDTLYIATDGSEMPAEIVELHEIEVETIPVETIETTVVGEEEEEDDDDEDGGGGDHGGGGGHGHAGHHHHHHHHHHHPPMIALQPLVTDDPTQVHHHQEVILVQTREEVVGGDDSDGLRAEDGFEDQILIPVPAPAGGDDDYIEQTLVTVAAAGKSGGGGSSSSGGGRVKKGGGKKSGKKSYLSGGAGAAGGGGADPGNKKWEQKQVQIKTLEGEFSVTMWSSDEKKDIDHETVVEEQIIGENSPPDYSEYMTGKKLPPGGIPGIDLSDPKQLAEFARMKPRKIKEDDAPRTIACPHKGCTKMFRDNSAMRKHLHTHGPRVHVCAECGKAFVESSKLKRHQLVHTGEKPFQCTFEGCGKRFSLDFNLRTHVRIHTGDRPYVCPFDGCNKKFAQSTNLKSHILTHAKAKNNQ
B1: binds.
B2: binds.

Each binder was assayed against T1, His6-YY1 (assay: competition).
B3: no binding.
B4: no binding.
B5: binds.
B6: no binding.
B7: binds.
B8: no binding.
B9: no binding.
